Test results published in US20170267762A1 (APOLLOMICS, published 2017).
Where a chain is given by its changes, count along the chain named. Values belong to the binder of their own block, whether it stands above or below them.

Experiments:
[1] = biological target: T1, human PD-1 on cells (293T cells transfected with human PD-1) (human, UniProt Q15116 25-288); experiment: FACS on hPD-1-293T cells
T1 construct: whole, on cells; Also used as the target for the functional rows, where PD-1 stands on human T cells
T1 sequence (Q15116 25-288): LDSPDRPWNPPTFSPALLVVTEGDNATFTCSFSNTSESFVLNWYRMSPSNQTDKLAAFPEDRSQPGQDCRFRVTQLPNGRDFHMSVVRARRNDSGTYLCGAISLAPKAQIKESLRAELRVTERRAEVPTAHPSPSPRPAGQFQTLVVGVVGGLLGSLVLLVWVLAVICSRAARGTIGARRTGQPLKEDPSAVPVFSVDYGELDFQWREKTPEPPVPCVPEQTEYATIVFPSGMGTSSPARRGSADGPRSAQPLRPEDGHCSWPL
Protocol: The cells were incubated with the indicated antibody (20 ug/ml with the dilution of ⅕) at 4° C. for 1 h. Cells were washed three times with FACS buffer. A secondary antibody (PE Goat anti-mouse: 1:200; PE mouse anti-human: 1:10) was added to the cells at 100 ul/well, and incubated at 4° C. for 40min. Cells were washed three times with FACS buffer and analyzed by FACS Array.
(§1) The purified hybridoma antibodies were characterized further based on ELISA and FACS analyses.

[2] = biological target: T2, human PD-1 (construct not stated) (human, UniProt Q15116 25-167, limits assumed); experiment: Biacore (summary table; unit from Table 7)
T2 construct: also called PD-1 analyte
T2 sequence (Q15116 25-167 limits assumed): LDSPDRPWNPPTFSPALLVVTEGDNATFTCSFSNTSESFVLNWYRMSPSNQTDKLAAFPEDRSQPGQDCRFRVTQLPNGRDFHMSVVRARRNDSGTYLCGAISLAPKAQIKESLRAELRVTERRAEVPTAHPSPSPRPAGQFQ
Protocol: (§2) To further characterize the binding characteristics of the antibodies, 10 hybridoma antibodies were profiled using Biacore (Biacore 3000, GE) to elucidate binding kinetics and calculate equilibrium binding constants. This assay was performed by capture method, using the mouse antibody capture kit (BR-1008-38, GE). After diluting anti-mouse Fc mab to 25 μg/ml in pH 5.0 immobilization buffer, immobilization was conducted with the parameters shown in Table 6 at a flow rate of 5 μl/min. The kinetic runs were done by 1) injecting ligand for typical 0.5-1 min at flow rate of 10 μl/min.; 2) injecting analytes of choice for typical 3 min followed by dissociation in running buffer (1× PBS-P20) for typical 5-10 min at flow rate of 30 μl/min.; and 3) injecting regeneration solution 10 mM Glycine pH1.7 for typical 1-2 min at flow rate of 10 μl/min.

human CTLA4 = biological target: T3, human CTLA4 (human, UniProt P16410 36-161, limits assumed); experiment: Interaction with CTLA4, ICOS CD28; assay not detailed
T3 sequence (looked up): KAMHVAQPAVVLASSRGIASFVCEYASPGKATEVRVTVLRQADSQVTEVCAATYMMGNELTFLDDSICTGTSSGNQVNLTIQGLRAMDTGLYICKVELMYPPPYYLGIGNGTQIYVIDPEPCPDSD

human ICOS = biological target: T4, human ICOS (human, UniProt Q9Y6W8 21-140, limits assumed); experiment: as above
T4 sequence (looked up): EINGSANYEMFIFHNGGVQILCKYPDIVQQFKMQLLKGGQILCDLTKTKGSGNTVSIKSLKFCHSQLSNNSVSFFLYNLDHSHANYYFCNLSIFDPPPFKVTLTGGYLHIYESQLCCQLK

human CD28 = human CD28 (human, UniProt P10747 19-152, limits assumed); experiment: as above
Chain of human CD28 (P10747 19-152 limits assumed): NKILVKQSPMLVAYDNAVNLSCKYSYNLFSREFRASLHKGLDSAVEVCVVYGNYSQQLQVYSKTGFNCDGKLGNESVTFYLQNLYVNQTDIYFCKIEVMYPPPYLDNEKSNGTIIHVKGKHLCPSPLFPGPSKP

[3] = biological target: T5, human PD-1 extracellular domain fused with mouse Fc (PD-1-mFc) (human, UniProt Q15116 25-170); experiment: blockage ELISA, competitor PDL-1-mFc-biotin (summary table; IC50 in ng/ml in Table 2)
T5 construct: extracellular domain; not used because of the label; also called hPD-1-mFc; human PD-1-mouse Fc fusion protein
T5 sequence (Q15116 25-170): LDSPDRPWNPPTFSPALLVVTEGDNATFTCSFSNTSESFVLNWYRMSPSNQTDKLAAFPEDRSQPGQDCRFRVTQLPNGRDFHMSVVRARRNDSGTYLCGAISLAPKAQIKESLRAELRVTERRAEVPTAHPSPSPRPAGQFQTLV
Protocol: (§3) PD-1-mFc antigen (CrownBio) was suspended in PBS (Hyclone,Cat No:SH30256.01B) buffer (2 ug/ml, 100 ul/ well) and coated on the 96 well plate (costar, Cat No.:9018) 4° C. overnight. Plates were washed 3 times using washing buffer: PBS+0.05% Tween 20(Sigma, Cat No.:P1379). 200 ul of blocking buffer (PBS+1%BSA(Roche, Cat No.:738328)), was added to each well, incubated at 37° C. for 1 hour, and washed 3 times. Various concentrations (suitable dilutions of hybridoma supernatant in PBS) of the anti-PD-1 Abs were added to the wells (100 μl/well) and incubated at 37° C. for 1 hour. […] Secondary antibody (Avidin HRP eBioscience cat No.:E07418-1632, 1:500, 100 ul/well) was added, incubated at 37 ° C. for 0.5 hour, and washed 3 times. TMB (Sigma, Cat No.: T0440, 100 ul/well) was added, and incubated for 3 min at RT. To stop the reaction, 2N H2SO4 (100 ul/well), was added. The colorimetric signals were developed and read at 450 nm using a Auto Plate SpectraMax Plus (Supplier: Molecular Devices; Model: MNR0643; Software: SoftMax Pro v5.4).

mouse PD-1 = biological target: T6, mouse PD-1 (mouse, UniProt Q02242 25-169, limits assumed); experiment: assays not detailed
T6 sequence (looked up): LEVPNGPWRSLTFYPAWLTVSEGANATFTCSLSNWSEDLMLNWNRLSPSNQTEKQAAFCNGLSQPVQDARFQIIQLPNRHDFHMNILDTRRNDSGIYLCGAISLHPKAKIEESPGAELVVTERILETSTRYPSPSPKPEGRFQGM

[4] = biological target: T1, human PD-1 on cells (293T cells …); experiment: FACS blockage on hPD-1-293T cells, competitor biotin PD-L2
Protocol: (§4) Various concentrations of the testing hybridoma antibodies were added to the cell suspension and incubated at 4° C. for 60 minutes in 96 well plates. […] Plates were washed 3 times, and mouse anti-biotin PE antibody (Biolgend, cat# 409004) was added. Flow cytometric analyses were performed using a FACS Array.
as §1

[5] = biological target: T7, human PD-1 extracellular domain fused with human Fc tag (hPD-1-hFc) (human); experiment: ELISA binding (summary table)
T7 construct: also called human PD-1-hFc
T7 sequence (chain, as listed by the source limits assumed): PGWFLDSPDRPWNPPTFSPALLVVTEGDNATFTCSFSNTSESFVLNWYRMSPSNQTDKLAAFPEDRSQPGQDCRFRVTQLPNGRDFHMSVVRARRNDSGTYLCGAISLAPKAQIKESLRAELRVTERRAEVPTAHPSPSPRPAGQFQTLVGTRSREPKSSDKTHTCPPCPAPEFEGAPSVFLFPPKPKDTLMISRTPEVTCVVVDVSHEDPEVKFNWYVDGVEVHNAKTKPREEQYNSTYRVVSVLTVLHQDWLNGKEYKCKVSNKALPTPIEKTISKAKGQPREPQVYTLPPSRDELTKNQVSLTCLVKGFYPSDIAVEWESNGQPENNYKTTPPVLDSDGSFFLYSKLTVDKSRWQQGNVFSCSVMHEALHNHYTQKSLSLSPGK
Protocol: (§5) ELISA binding analysis was conducted based on human PD-1-hFc Protein. 96-well plates (Costar, Cat No:9018) were coated with 100 μL of 2 μg/ml PD1-hFc (CrownBio) in coating buffer (PBS, Hyclone, Cat No:SH30256.01B) overnight at 4° C. The wells were aspirated and non-specific binding sites were blocked by adding 200 μL of blocking buffer with 1% (w/v) of bovine serum albumin (BSA, Roche, Cat No: 738328) and incubating for 1 hour at 37° C. After the plates are washed three times with wash buffer (PBS with 0.05%(v/v) Tween20 (Sigma, Cat No:P1379), 100 μL/well of a suitable dilutions of hybridoma supernatant in blocking buffer were added and incubated at room temperature for 1 hour. The plates were washed and incubated with 100 μL/well of Goat anti-Mouse IgG (H+L) (Thermo, Cat No: 31432) in blocking buffer for 60 min. After the plates were washed, 100 μL/well of substrate solution (TMB(eBioscience, Cat No:00-4201-56) was added and the plates were incubated for 2min at room temperature. 100 μL/well of stop solution (2N H2SO4) was added to stop the reaction. The colorimetric signals were developed and read at 450 nm using a Auto Plate SpectraMax Plus (Supplier: Molecular Devices; Model: MNR0643; Software: SoftMax Pro v5.4).
as §1

[6] = biological target: T7, human PD-1 extracellular domain fused …; experiment: ELISA on coated PD1-hFc
Protocol: as §5, §1

[7] = biological target: T2, human PD-1 (construct not stated); experiment: Biacore, antibody captured, PD-1 analyte
Protocol: as §2

[8] = biological target: T5, human PD-1 extracellular domain fused …; experiment: blockage ELISA, coated PD-1-mFc, competitor PDL-1-mFc-biotin
Protocol: as §3, §1

[9] = biological target: T1, human PD-1 on cells (293T cells …); experiment: FACS blockage on hPD-1-293T cells, competitor biotin PD-L1
Protocol: as §4, §1

EC50 [1]: 0.0491 µg/mL
Kd [2]: 0.0255 nM
binding result (human CTLA4): no binding
binding result (human ICOS): no binding
binding result (human CD28): no binding
IC50 [3]: 0.961 µg/mL
binding result (mouse PD-1): no binding
IC50 [4]: 0.114 µg/mL
EC50 [5]: 0.0157 µg/mL
EC50 [6]: 0.0157 µg/mL
Ka [7]: 3.92e+10 M⁻¹
Kd [7]: 0.0255 nM
koff [7]: 2.83e-05 s⁻¹
kon [7]: 1.11e+06 M⁻¹ s⁻¹
IC50 [8]: 0.961 µg/mL
IC50 [9]: 0.0268 µg/mL
B1: 6E1 murine anti-PD-1 antibody (antibody, V domains shown)
VH: EVKLVESGGGLVKPGGSLKLSCAASGFTFSSYGMSWVRQTPEKRLEWVATISGGGRDTYYLDSVKGRFTISRDNAKNNLYLQMSSLRSEDTALYYCVRQYYDDWFAYWGQGTLVSNSA
VL: DIVLTQTPATLSVTPGDSVSLSCRASQSLSNNLHWYQQKSHESPRLLIKYASQSISGIPSRFSGSGSGTDFTLSINSVETEDFGMYFCQQSNSWPLTFGAGTKLEMKR
notes: Purified hybridoma antibody; also called 6E1-mIgG1

EC50 [1]: 0.0527 µg/mL
Kd [2]: 0.0249 nM
binding result (human CTLA4): no binding
binding result (human ICOS): no binding
binding result (human CD28): no binding
IC50 [3]: 0.982 µg/mL
binding result (mouse PD-1): no binding
IC50 [4]: 0.141 µg/mL
EC50 [5]: 0.0244 µg/mL
EC50 [6]: 0.0244 µg/mL
Ka [7]: 4.02e+10 M⁻¹
Kd [7]: 0.0249 nM
koff [7]: 2.83e-05 s⁻¹
kon [7]: 1.14e+06 M⁻¹ s⁻¹
IC50 [8]: 0.982 µg/mL
IC50 [9]: 0.038 µg/mL
B2: 7D3 murine anti-PD-1 antibody (antibody, V domains shown)
VH: B1 VH with A23G, T58I, L61P, F68L, S115T, N116V
VL: B1 VL with T7S, L29I, N32D, A51V, N92D, M106L
notes: Purified hybridoma antibody; also called 7D3-mIgG1

EC50 [1]: 0.0775 µg/mL
Kd [2]: 0.0193 nM
binding result (human CTLA4): no binding
binding result (human ICOS): no binding
binding result (human CD28): no binding
IC50 [3]: 1.11 µg/mL
binding result (mouse PD-1): no binding
IC50 [4]: 0.21 µg/mL
EC50 [5]: 0.0194 µg/mL
EC50 [6]: 0.0194 µg/mL
Ka [7]: 5.17e+10 M⁻¹
Kd [7]: 0.0193 nM
koff [7]: 2.88e-05 s⁻¹
kon [7]: 1.49e+06 M⁻¹ s⁻¹
IC50 [8]: 1.11 µg/mL
IC50 [9]: 0.0562 µg/mL
B3: 22A5 murine anti-PD-1 antibody (antibody, V domains shown)
VH: EVKLVESGGGLVKPGGSLKLSCSASGFSFSYYDMSWVRQTPEKGLEWVATISGGGRNTYFIDSVKGRFTISRDNVKNNLYLLMSSLRSEDTALYYCASPYEGAVDFWGQGTSVTVSS
VL: DIVMTQSHKVMSTSVGDRVSITCKASQDVDNAVAWYQQNPGQSPKLLIKWASTRHHGVPDRFTGSGSGTDFTLTISTVQSEDLADFFCQQYSTFPYTFGGGTKLEIKR
notes: Purified hybridoma antibody; also called 22A5-mIgG1
